From patent publication US6680170B2, “Polynucleotides encoding STE20-related protein kinases and methods of use” (Sugen, Inc., priority 1998, dated 2004)
Where no end group is shown, it is not given here.

Legend:
[1] = biological target: T1, PAK4 (Homo sapiens, UniProt Q9NQU5); test: In vitro kinase assay, activation loop peptide as PAK4 substrate; assay type: biochemical
T1 construct: made in house; host or cells: 293 cells (transient transfection, immunopurified) or bacteria (GST fusion)
Description: (§1) Three days after transfection with the STE20-related kinase expression contructs, a 10 cm plate of 293 cells was washed with PBS and solubilized on ice with 2 mL PBSTDS containing phosphatase inhibitors (10 mM NaHPO4, pH 7.25, 150 mM NaCl, 1% Triton X-100, 0.5% deoxycholate, 0.1% SDS, 0.2% sodium azide, 1 mM NaF, 1 mM EGTA, 4 mM sodium orthovanadate, 1% aprotinin, 5 μg/mL leupeptin). Cell debris was removed by centrifugation (12000× g, 15 min, 4° C.) and the lysate was precleared by two successive incubations with 50 μL of a 1:1 slurry of protein A sepharose for 1 hour each. One-half mL of the cleared supernatant was reacted with 10 μL of protein A purified kinase-specific antisera (generated from the GST fusion protein or antipeptide antisera) plus 50 μL of a 1:1 slurry of protein A-sepharose for 2 hr at 4° C. The beads were then washed 2 times in PBSTDS, and 2 times in HNTG (20 mM HEPES, pH 7.5/150 mM NaCl, 0,1% Triton X-100, 10% glycerol).
The immunopurified kinases on sepharose beads were resuspended in 20 μL HNTG plus 30 mM MgCl2, 10 mM MnCl2, and 20 μCi […] (3000 Ci/mmol). The kinase reactions were run for 30 min at room temperature, and stopped by addition of HNTG supplemented with 50 mM EDTA. The samples were washed 6 times in HNTG, boiled 5 min in SDS sample buffer and analyzed by 6% SDS-PAGE followed by autoradiography. […]

[2] = biological target: T2, PAK5 (Homo sapiens, UniProt O96013); test: In vitro kinase assay, activation loop peptides as PAK5 substrates; assay type: biochemical; conditions: for substrate: peptide substrates at 2.5 μM
T2 construct: made in house; host or cells: 293 cells (transient transfection, immunopurified on protein A sepharose) or bacteria (GST fusion)
T2 sequence (O96013 whole entry, the tested form may be a part): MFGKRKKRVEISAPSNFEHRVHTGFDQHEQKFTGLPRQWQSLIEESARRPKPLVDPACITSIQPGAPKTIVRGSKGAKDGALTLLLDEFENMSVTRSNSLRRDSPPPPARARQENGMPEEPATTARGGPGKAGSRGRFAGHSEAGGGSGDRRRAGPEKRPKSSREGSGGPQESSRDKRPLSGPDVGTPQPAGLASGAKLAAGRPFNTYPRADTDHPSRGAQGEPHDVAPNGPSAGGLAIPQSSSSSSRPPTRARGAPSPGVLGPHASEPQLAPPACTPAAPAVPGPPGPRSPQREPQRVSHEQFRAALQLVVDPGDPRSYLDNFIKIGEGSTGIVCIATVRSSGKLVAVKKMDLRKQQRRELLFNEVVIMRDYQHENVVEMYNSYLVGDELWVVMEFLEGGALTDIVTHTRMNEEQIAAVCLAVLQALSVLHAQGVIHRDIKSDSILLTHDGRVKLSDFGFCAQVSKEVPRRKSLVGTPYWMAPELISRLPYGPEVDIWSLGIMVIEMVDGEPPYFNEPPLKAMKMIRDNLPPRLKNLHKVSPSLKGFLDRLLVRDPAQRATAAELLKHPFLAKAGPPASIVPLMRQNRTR
Description: as §1
The immunopurified kinases on sepharose beads were resuspended in 20 μL HNTG plus 30 mM MgCl2, 10 mM MnCl2, and 20 μCi […] (3000 Ci/mmol). The kinase reactions were run for 30 min at room temperature, and stopped by addition of HNTG supplemented with 50 mM EDTA. The samples were washed 6 times in HNTG, boiled 5 min in SDS sample buffer and analyzed by 6% SDS-PAGE followed by autoradiography. Phosphoamino acid analysis was performed by standard 2D methods on ^32P-labeled bands excised from the SDS-PAGE gel.
Similar assays were performed on bacterially expressed GST-fusion constructs of the kinases.
20 mM Hepes pH 7.2, 130 mM KCl, 10 mM MgCl2, 1 mM NaF, 20 mM B-glycerolphosphate, 0.5 mM DTT, 50 μM ATP, 0.5 μCi ^32PyATP.
Substrates: MBP at 0.28 mg/mL and peptide substrates derived from PAK5 activation loop at 2.5 μM.
To aid in the development of in vitro kinase assays for screening small molecule libraries to identify specific inhibitors, the search for specific peptide substrates for PAK5 was undertaken.
The rationale used to design such peptides is based on the hypothesis that upon binding activated small G protein, PAK5 undergoes a conformational change that results in derepression of its kinase activity followed by autophosphorylation on the activation loop resulting in a fully active kinase. The site of autophosphorylation for related family members has been identified by biochemical and/or genetic means (e.g. Wu, C, et al. J.Biol.Chem 270:15984-15992 and Szczepanowska, et al. Proc.Natl.Acad.Sci 94, 8503-8508, 1997). Specific peptide substrates for PAKS were designed from the sequence of the activation loop of this kinase.

T1 sequence (Q9NQU5 whole entry, the tested form may be a part): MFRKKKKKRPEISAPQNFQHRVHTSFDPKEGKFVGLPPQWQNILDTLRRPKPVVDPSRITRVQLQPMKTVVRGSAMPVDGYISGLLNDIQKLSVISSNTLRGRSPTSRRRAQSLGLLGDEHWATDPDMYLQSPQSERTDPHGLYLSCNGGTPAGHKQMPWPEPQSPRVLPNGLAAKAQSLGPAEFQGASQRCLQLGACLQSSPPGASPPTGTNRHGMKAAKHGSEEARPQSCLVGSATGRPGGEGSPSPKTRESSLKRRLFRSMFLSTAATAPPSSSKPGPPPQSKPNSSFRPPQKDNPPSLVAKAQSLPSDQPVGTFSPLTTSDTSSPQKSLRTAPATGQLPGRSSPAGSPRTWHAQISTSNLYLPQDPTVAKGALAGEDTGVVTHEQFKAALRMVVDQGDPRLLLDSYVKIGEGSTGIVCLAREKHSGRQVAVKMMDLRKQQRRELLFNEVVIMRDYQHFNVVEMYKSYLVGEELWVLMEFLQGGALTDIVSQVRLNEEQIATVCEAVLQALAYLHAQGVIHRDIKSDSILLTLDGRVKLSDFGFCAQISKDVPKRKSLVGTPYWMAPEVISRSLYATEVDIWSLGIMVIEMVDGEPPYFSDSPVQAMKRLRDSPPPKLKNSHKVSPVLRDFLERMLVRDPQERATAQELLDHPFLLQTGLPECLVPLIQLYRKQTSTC

| Substance | Notes: substrate quality relative to MBP or other peptides [2] | substrate [2] | further results |
| --- | --- | --- | --- |
| (C) RRKSLVGTPYWMAPE (CRRKSLVGTPYWMAPE; N-terminal cysteine) [Peptide 10] | – | – | Notes: Km for PAK4 compared with PAK5 [1]: Same Km as phosph. by PAK5; substrate [1]: yes |
| (C) RRKSLVGTPYWMAPE [1] (CRRKSLVGTPYWMAPE; N-terminal cysteine) [Peptide 1] | Equally well as MBB | yes | – |
| (C) RRKSLVGTPYWMAPE [2] (CRRKSLVGTPYWMAPE; also: phosphorylated residue) [Peptide 2, phosphorylated residue marking not visible] | – | yes | Km ([2]; Notes column): 1 to 10 µM |
| (C) RRKSLVGTPYWMAPE [3] (CRRKSLVGTPYWMAPE; also: phosphorylated residue) [Peptide 3, phosphorylated residue marking not visible] | – | no | – |
| KRKSFIGTPYWMAPE [Peptide 4] | Similiar to peptide 1 | yes | – |
| KRNTFVGTPFWMAPE [Peptide 5] | – | poor | – |
| PANSFVGTPYWMAPE [Peptide 6] | – | poor | – |
| RNKVRKTFVGTPCWMAPE [Peptide 9] | – | poor | – |
| RRNTFIGTPYWMAPE (also: phosphorylated residue) [Peptide 8, phosphorylated residue marking not visible] | Better than 7 | – | – |
| RRNTFIGTPYWMAPE [Peptide 7] | – | poor | – |
